The source of these data is publication PMC4644223.

The stoichiometry N is the number of molecules, sites or subunits per partner or assembly.

For assay [1], the target named is T1, Snf7 labeled with Alexa488 (yeast), P39929.
T1 chain: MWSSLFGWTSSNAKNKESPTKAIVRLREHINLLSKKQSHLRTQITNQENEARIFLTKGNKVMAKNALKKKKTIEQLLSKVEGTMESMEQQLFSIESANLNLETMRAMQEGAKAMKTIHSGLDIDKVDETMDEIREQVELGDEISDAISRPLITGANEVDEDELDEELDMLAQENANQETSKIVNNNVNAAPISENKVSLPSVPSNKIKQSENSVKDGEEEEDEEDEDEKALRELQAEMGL
As to the kind of experiment: TIRF microscopy with counting of molecules by fluorescence intensity. Conditions: remark: other sources report otherwise.

Assay [2] has as its target T2, Snf7 (yeast), P39929.
T2 chain: T1 chain
As to the kind of experiment: high-speed atomic force microscopy. The settings on record: remark: other sources report otherwise.

B1: Snf7 labeled with Alexa488, P39929 1-240 (natural protein)
chain: T1 chain
modifications: here or on the partner: Alexa488 label (TFP-Alexa-488), site not stated; Alexa488 label (TFP-Alexa-488), site not stated
Consider B1, for which the stoichiometry N in assay [1] amounted to 50 monomers.

B2: Snf7, P39929 1-240 (natural protein)
chain: T1 chain
B2 showed a filament growth rate (subunits.s^−1.μM^−1) in assay [2] of 3.
